Results on 5 substances are retold here after US20110229482A1, “Method of inhibiting infection by HCV, other flaviviridae viruses, and any other virus that complexes to low density lipoprotein or to very low density lipoprotein in blood by preventing viral entry into a cell” (priority 2000, published 2011).

The target in the assay is LDL receptor (human), on cells (human) (UniProt P01130). Put plainly: cell-based or functional assay.

For the substance “HDL fraction of HCV-infected serum (HCV-HDL)”, the Endocytosis of 5 µg DiI-labeled fraction, mean fluorescence (log scale) (mean fluorescence (log scale)) was found to be 1.88.

The substance “LDL fraction of HCV-infected serum (HCV-LDL)” gave an Endocytosis of 5 µg DiI-labeled fraction, mean fluorescence (log scale) (mean fluorescence (log scale)) of 9.98.

The substance “VLDL fraction of HCV-infected serum (HCV-VLDL)” came in with an Endocytosis of 5 µg DiI-labeled fraction, mean fluorescence (log scale) (mean fluorescence (log scale)) of 8.49.

Consider “high density lipoprotein (HDL) from normal serum”, for which the competitive inhibition of endocytosis of HCV by HepG2, G4 and E11 cells is more than 200 µg/mL.

For “low density lipoprotein (LDL) from normal serum, P04114 1-4563”, the Uptake of LDL by cultured cells, mean fluorescence (G4, lipoprotein deficient medium, DiI-LDL) (mean fluorescence) was determined as 16; the Uptake of LDL by cultured cells, mean fluorescence (G4, routine medium, DiI-LDL) (mean fluorescence) stood at 4; the Uptake of LDL by cultured cells, mean fluorescence (HepG2, routine medium, DiI-LDL) (mean fluorescence) was determined as 16.
